According to publication PMC3962013 (Cell, 2014):

T1: C. elegans SYG-2 ectodomain (C. elegans, UniProt Q9U3P2 20-1084)
T1 sequence (looked up): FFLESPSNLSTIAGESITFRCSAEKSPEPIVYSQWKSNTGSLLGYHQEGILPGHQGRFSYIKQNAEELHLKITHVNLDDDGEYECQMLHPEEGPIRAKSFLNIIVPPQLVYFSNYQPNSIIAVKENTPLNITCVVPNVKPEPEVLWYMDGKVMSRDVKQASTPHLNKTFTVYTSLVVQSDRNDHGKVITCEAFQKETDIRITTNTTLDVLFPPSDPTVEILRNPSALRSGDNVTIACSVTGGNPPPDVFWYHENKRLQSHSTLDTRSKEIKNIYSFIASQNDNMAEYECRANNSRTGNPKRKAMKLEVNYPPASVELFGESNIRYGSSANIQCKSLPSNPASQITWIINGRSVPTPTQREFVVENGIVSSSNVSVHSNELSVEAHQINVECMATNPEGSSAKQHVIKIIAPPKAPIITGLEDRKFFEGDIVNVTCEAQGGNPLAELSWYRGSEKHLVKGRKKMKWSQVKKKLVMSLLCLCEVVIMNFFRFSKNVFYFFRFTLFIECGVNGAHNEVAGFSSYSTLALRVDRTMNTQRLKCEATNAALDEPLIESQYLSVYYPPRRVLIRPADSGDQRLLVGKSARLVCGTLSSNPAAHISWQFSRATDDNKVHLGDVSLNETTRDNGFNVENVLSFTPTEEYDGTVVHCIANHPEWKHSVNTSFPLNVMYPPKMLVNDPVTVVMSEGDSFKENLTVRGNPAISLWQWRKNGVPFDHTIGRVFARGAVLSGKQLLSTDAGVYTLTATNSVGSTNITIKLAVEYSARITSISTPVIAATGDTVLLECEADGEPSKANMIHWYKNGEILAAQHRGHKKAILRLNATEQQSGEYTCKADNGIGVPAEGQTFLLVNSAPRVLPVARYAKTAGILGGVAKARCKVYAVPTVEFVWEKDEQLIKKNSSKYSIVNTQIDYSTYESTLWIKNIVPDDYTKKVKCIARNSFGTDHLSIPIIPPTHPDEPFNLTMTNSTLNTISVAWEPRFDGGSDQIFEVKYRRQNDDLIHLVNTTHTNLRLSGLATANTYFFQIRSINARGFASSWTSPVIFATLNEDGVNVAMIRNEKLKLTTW


Tests used:
[1] = molecular target: T1, C. elegans SYG-2 ectodomain; experiment: ITC + SPR
[2] = molecular target: wild type SYG-2 (SPR series with mutants, construct not stated) (C. elegans); experiment: SPR

Row | Kd [1] | fold weaker affinity than wild-type SYG-1 [2] | Binder
1 | ~600 nM | – | C. elegans SYG-1 ectodomain (domain or fragment, UniProt B1Q236 19-551, looked up) QQLQQRIVEAPKDTLAAVGETAILTCRVEHQQGPVQWMKDDFGLGTDRDKPLPGNKRYRMVGSAANGEYNLEISNVTLFDDDDFACQISESDHAKAVVSSKAKLTVLVRPTPPKIVKSHHSLKAIAGDPITQSCLSRKGKPPPTIGWAIASDEHGKHIVSWLGESRSKFGGIHAKPEISQETVIAHVNETTQVEEGGNNSREDSSIYSIMSNLSFIPRPEDDHKYLICISQHMTFPNKIEVDSVKLSLRYAPQINLTVASKLPLRENGSALLACNVNAKPLDNVKISWYKGNQKLRETGDTLTFETLKMEDHNRDIFCEATNEIGTTRGSIKLNVAFGARIMSTSQDKEVNEGDNAFFHCATLANPAPAIFWTRGDSDEIIGHGENLTLENVRTWQQGNYNCTATVEGFRKQILSHYLHIRGPPTVSMKDEVSASLDEATEIICEISGRPKTNNVRWTVNGKEINFNNGRITVHQYPKPYGKESILKIKDLKEEDFGVYNCSANNGLGFDNRGTLLKKRNILDWIVITAKFDR
2 | – | 7 fold | SYG-1 Q54 mutant (domain or fragment) QQLQQRIVEAPKDTLAAVGETAILTCRVEHQQGPVAWMKDDFGLGTDRDKPLPGNKRYRMVGSAANGEYNLEISNVTLFDDDDFACQISESDHAKAVVSSKAKLTVLVRPTPPKIVKSHHSLKAIAGDPITQSCLSRKGKPPPTIGWAIASDEHGKHIVSWLGESRSKFGGIHAKPEISQETVIAHVNETTQVEEGGNNSREDSSIYSIMSNLSFIPRPEDDHKYLICISQHMTFPNKIEVDSVKLSLRYAPQINLTVASKLPLRENGSALLACNVNAKPLDNVKISWYKGNQKLRETGDTLTFETLKMEDHNRDIFCEATNEIGTTRGSIKLNVAFGARIMSTSQDKEVNEGDNAFFHCATLANPAPAIFWTRGDSDEIIGHGENLTLENVRTWQQGNYNCTATVEGFRKQILSHYLHIRGPPTVSMKDEVSASLDEATEIICEISGRPKTNNVRWTVNGKEINFNNGRITVHQYPKPYGKESILKIKDLKEEDFGVYNCSANNGLGFDNRGTLLKKRNILDWIVITAKFDR
